Reference: patent publication US20240261333A1, “NOVEL TARGETS FOR ENHANCING ANTI-TUMOR IMMUNITY” (THE BROAD INSTITUTE, INC., priority 2021, published 2024)

Molecular target: T1, B3GNT2 (Homo sapiens, UniProt Q9NY97)
T1 construct: The respective ORFs of candidate genes [CD274 (NM_014143), MCL1 (NM_021960), JUNB (NM_002229), and B3GNT2 (NM_006577)] were synthesized; expressed in transfected cells; host or cells: A375 melanoma cells (lentiviral ORF overexpression)
T1 sequence (Q9NY97 1-397): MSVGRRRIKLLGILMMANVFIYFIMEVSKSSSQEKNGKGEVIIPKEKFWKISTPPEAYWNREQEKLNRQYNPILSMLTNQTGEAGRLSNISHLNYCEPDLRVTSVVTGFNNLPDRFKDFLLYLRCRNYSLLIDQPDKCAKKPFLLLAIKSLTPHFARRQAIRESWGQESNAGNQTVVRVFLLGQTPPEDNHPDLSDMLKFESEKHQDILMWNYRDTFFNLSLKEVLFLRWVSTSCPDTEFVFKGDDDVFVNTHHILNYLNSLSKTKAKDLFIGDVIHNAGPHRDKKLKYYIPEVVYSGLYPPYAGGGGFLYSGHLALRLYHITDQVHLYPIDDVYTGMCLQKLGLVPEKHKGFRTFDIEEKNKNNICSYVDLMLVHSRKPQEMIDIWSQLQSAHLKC
Test: Co-IP of FLAG-tagged B3GNT2 followed by mass spectrometry
Format: cell-based
Design: C-term IgG / C-term flag: unit not given here
Protocol: Cells were plated in 10-cm cell culture dishes and grown to 60-80% confluency. For each condition, two biological replicates were harvested for co-IP. Cells were washed with PBS and 4 mL of lysis buffer (20 mM HEPES, 1% Triton X-100, 150 mM NaCl, 1 mM EDTA, and 10% glycerol) containing protease inhibitor cocktail was added. Cells were scraped and lysate was incubated at 4° C. under rotary agitation for 1 h. Lysate was centrifuged at 14,000×g for 10 min at 4° C. Supernatant was transferred to a new tube and an aliquot was taken as the input. […] For Western blots, 10 μg/mL Chicken Anti-FLAG (Aves labs ET-DY100) and IgY control (R&D Systems AB-101-C) antibodies were biotinylated (Thermo Fisher Scientific 90407) and added to the respective conditions. Lysates with antibodies were incubated at 4° C. under rotary agitation overnight. For each mL of lysate, 50 μL of Pierce Protein A/G Magnetic Beads (Mass spectrometry; Thermo Fisher Scientific 88803) or Pierce Streptavidin Magnetic Beads (Western blot; Thermo Fisher Scientific 88817) was washed twice with lysis buffer. Lysates with antibodies were added to the beads and incubated at 4° C. under rotary agitation for 4 h. Beads were washed with lysis buffer 3 times and resuspended in lysis buffer for storage. […] This solution was subjected to solid phase extraction to concentrate the peptides and remove unwanted reagents followed by injection onto a Shimadzu HPLC with fraction collector. Eight fractions were collected and after concentration were injected on a Waters NanoAcquity HPLC equipped with a self-packed Aeris 3 μm C18 analytical column 0.075 mm by 20 cm, (Phenomenex). Peptides were eluted using standard reverse-phase gradients. The effluent from the column was analyzed using a Thermo Orbitrap Elite mass spectrometer (nanospray configuration) operated in a data dependent manner for 54 minutes. […] Scaffold Q+S (Proteome Software) was used to provide consensus reports for the identified proteins.

[1] = Co-IP with FLAG antibody, C-terminally FLAG-tagged B3GNT2, mass spectrometry count, unit not given
[2] = Co-IP with FLAG antibody, N-terminally FLAG-tagged B3GNT2, mass spectrometry count, unit not given
[3] = Co-IP with IgG control antibody, C-terminally FLAG-tagged B3GNT2, mass spectrometry count, unit not given
[4] = Co-IP with IgG control antibody, N-terminally FLAG-tagged B3GNT2, mass spectrometry count, unit not given
[5] = Co-IP followed by mass spectrometry of B3GNT2, C-term tag, FLAG pull-down
[6] = Co-IP followed by mass spectrometry of B3GNT2, C-term tag, IgG pull-down
[7] = Co-IP followed by mass spectrometry of B3GNT2, N-term tag, FLAG pull-down
[8] = Co-IP followed by mass spectrometry of B3GNT2, N-term tag, IgG pull-down

Row | Substance | C-term flag [1] | N-term FLAG [2] | C-term IgG [3] | N-term IgG [4] | C-term flag [5] | C-term IgG [6] | N-term FLAG [7] | N-term IgG [8]
1 | ABCD1 | 2 | 0 | 0 | 0 | – | – | – | –
2 | ABCF1 | 2 | 0 | 0 | 0 | – | – | – | –
3 | AIFM1 | 5 | 5 | 0 | 0 | – | – | – | –
4 | ATM | 0 | 3 | 0 | 0 | – | – | – | –
5 | ATP5F1B | – | – | – | – | 4 | 0 | 2 | 0
6 | CALU | 13 | 10 | 0 | 0 | – | – | – | –
7 | CCT3 | – | – | – | – | 5 | 0 | 0 | 0
8 | CEP170 | 2 | 0 | 0 | 0 | – | – | – | –
9 | CFL1 | – | – | – | – | 6 | 3 | 5 | 3
10 | CLTC | – | – | – | – | 7 | 5 | 6 | 6
11 | CSPG4 | 12 | 2 | 0 | 0 | – | – | – | –
12 | CTSD | 4 | 3 | 0 | 3 | – | – | – | –
13 | DHX9 | – | – | – | – | 5 | 0 | 0 | 0
14 | DNAJA1 | 10 | 6 | 0 | 0 | – | – | – | –
15 | DNAJA2 | – | – | – | – | 3 | 0 | 3 | 0
16 | ECPAS | 0 | 3 | 0 | 0 | – | – | – | –
17 | EIF4A1 | 6 | 2 | 0 | 0 | – | – | – | –
18 | EIF4G1 | – | – | – | – | 6 | 2 | 2 | 2
19 | ELOC | 2 | 0 | 0 | 0 | – | – | – | –
20 | EMD | – | – | – | – | 2 | 2 | 2 | 0
21 | ENO1 | 4 | 5 | 2 | 2 | – | – | – | –
22 | EPRS | 4 | 3 | 0 | 0 | – | – | – | –

Row | Substance | C-term flag [1] | N-term FLAG [2] | C-term IgG [3] | N-term IgG [4] | C-term flag [5] | C-term IgG [6] | N-term FLAG [7] | N-term IgG [8]
23 | ERLIN2 | 9 | 8 | 0 | 0 | – | – | – | –
24 | ERP29 | 0 | 2 | 0 | 0 | – | – | – | –
25 | FABP5 | 8 | 6 | 0 | 2 | – | – | – | –
26 | FKBP10 | 16 | 0 | 0 | 0 | – | – | – | –
27 | FLG | – | – | – | – | 22 | 15 | 29 | 20
28 | GALNT2 | 2 | 0 | 0 | 0 | – | – | – | –
29 | GAPDH | 16 | 18 | 6 | 11 | – | – | – | –
30 | GBF1 | – | – | – | – | 5 | 0 | 0 | 0
31 | GCN1 | 4 | 14 | 0 | 0 | – | – | – | –
32 | HADHA | 2 | 0 | 0 | 0 | – | – | – | –
33 | HBA1 | 4 | 3 | 0 | 3 | – | – | – | –
34 | HBB | – | – | – | – | 0 | 0 | 4 | 0
35 | HDGFL2 | 2 | 0 | 0 | 0 | – | – | – | –
36 | HERC2 | 3 | 0 | 0 | 0 | – | – | – | –
37 | HNRNPA2B1 | – | – | – | – | 8 | 9 | 7 | 4
38 | HNRNPK | – | – | – | – | 12 | 10 | 9 | 8
39 | HNRNPU | – | – | – | – | 12 | 0 | 0 | 2
40 | HSP90AB1 | 11 | 10 | 2 | 0 | – | – | – | –
41 | HSP90B1 | 56 | 9 | 0 | 0 | – | – | – | –
42 | HSPA5 | 130 | 70 | 12 | 9 | – | – | – | –
43 | HSPA8 | – | – | – | – | 49 | 15 | 41 | 16
44 | HSPB1 | – | – | – | – | 4 | 0 | 3 | 4
